Experimental data reported in doi:10.1101/2023.03.06.531322.

Molecular target: TafA (HAH_0240), mature major subunit of tat-fimbriae (tafi) of Haloarcula hispanica (Haloarcula hispanica)
Test: co-sedimentation

molar ratio in filament preparations (molecules per 100 molecules of TafA) | Substance
1 | TafC (HAH_0242), minor component of tafi of Haloarcula hispanica (natural protein)
5 | TafE (HAH_0239), minor component of tafi of Haloarcula hispanica (natural protein)
